Nine molecules from PMC5095699 (Biochemistry, 2015) can be followed below.

For data set [1], the target named is 3,4-ketoisomerase domain of FdtD from Shewanella denitrificans (Shewanella denitrificans). The experiment in a line: crystal structure.
Data set [2] has as its target 3,4-ketoisomerase domain of FdtD (Shewanella denitrificans, UniProt Q12KT8). The data set can be described thus: X-ray crystal structure, […] A. The format is binding. The conditions noted are these: crystal soaked with 3 mM ligand, pH 7; active site, substrate analogue.
A further data set addresses QdtA (Thermoanaerobacterium thermosaccharolyticum, UniProt Q6TFC5, Y17R/R97H). The data set can be described thus: X-ray crystal structure, […] A. Particulars: dTDP co-purified from E. coli, not added; pH 6; active site. It counts as binding.
Substrate in data set [3]: Cc1cn([C@H]2C[C@H](O)[C@@H](COP(=O)(O)OP(=O)(O)O[C@H]3O[C@H](C)C(=O)[C@H](O)[C@H]3O)O2)c(=O)[nH]c1=O
The experiment in a line: purified protein. The conditions noted are these: 50 mM HEPES pH 7.5, 0.2 mM NADPH, 1 mg/mL KijD10.

Substrate in data set [4]: Cc1cn([C@H]2C[C@H](O)[C@@H](COP(=O)(O)OP(=O)(O)O[C@H]3O[C@H](C)C(=O)[C@H](O)[C@H]3O)O2)c(=O)[nH]c1=O
The data set can be described thus: purified protein. Particulars: 50 mM HEPES pH 7.5, 0.2 mM NADPH, 1 mg/mL KijD10. The format is biochemical, Thermoanaerobacterium thermosaccharolyticum.

Data set [5] concerns the molecule itself. The experiment in a line: crystal structure.
Data set [6] deals with the molecule itself. The experiment in a line: crystal structure. The source holds these as a separate data set.
Substrate in data set [7]: Cc1cn([C@H]2C[C@H](O)[C@@H](COP(=O)(O)OP(=O)(O)O[C@H]3O[C@H](C)C(=O)[C@H](O)[C@H]3O)O2)c(=O)[nH]c1=O
The experiment in a line: purified protein. The format is biochemical, Shewanella denitrificans. The conditions noted are these: 50 mM HEPES pH 7.5, 0.2 mM NADPH, 1 mg/mL KijD10.

Changes are numbered by the printed parent chain. Numbers in names are those of the source. Like-named read-outs stand apart in the source and are kept apart here.

Broadly, the stoichiometry N is the number of molecules, sites or subunits per partner or assembly. Take “3,4-ketoisomerase domain of FdtD from Shewanella denitrificans (domain or fragment)”: the stoichiometry N in data set [1] was 2.
In the case of `Cc1cn([C@H]2C[C@H](O)[C@@H](COP(=O)(O)OP(=O)(O)O[C@H]3O[C@H](C)[C@@H](NC=O)[C@H](O)[C@H]3O)O2)c(=O)[nH]c1=O` [dTDP-4,6-dideoxy-4-formamido-glucose], the “X-ray crystal structure, 1.7 A” value in data set [2] is listed as “structure of the enzyme was solved in the presence of dTDP-4,6-dideoxy-4-formamido-D-glucose”.
Take `Cc1cn([C@H]2C[C@H](O)[C@@H](COP(=O)(O)OP(=O)(O)O)O2)c(=O)[nH]c1=O` [dTDP]: the “X-ray crystal structure, 2.3 A” value on QdtA is reported as “Observed electron density for the dTDP moiety bound to the QdtA Y17R/R97H mutant enzyme”.

B1: QdtA (Thermoanaerobacterium thermosaccharolyticum; Y17R) (protein)
chain: MLYNVALIKFKDIADKRGHLTPIEGKIDIPFDIKRVYYITKVDKDITRGYHAHKKLHQVLICLNGSVKIRLKIPDEEKIIELNDPSVGLYIGPFLWREMFDFTEGCVLLVLASEYCDETDYIRNYDFYIDEAKKRF
In general, Km refers to the concentration of substrate that gives half-maximal velocity. Consider B1, for which, in “purified protein [3]”, the Michaelis constant (Km) was 370 ± 60 µM.

B2: QdtA from Thermoanaerobacterium thermosaccharolyticum, wild-type apoenzyme (enzyme)
chain: B1 chain with R17Y
Usually kcat stands for the maximal rate divided by the concentration of active sites. By kcat/Km is commonly meant the turnover number divided by the Michaelis constant. Turning to B2, in “purified protein [4]”, the Km is 140 ± 10 µM, the kcat was 3.85 ± 0.25 s⁻¹ and the kcat/Km turned out to be 28000 M⁻¹ s⁻¹. Also, the “stoichiometry N” value in the data set “crystal structure [5]” amounted to 2.

B3: QdtA (Thermoanaerobacterium thermosaccharolyticum; R97H) (protein)
chain: B1 chain with R17Y, R97H
As for B3, in “purified protein [4]”, the Michaelis constant (Km) worked out at 61 ± 9 µM, the catalytic constant (kcat) amounted to 0.4 ± 0.06 s⁻¹ and the kcat/Km stood at 6500 M⁻¹ s⁻¹.

B4: QdtA (Thermoanaerobacterium thermosaccharolyticum; Y37F) (protein)
chain: B1 chain with R17Y, Y37F
Regarding B4, in the data set “purified protein [4]”, the Km is 34 ± 7 µM, the kcat came to 0.023 ± 0.004 s⁻¹ and the catalytic efficiency (kcat/Km) was found to be 690 M⁻¹ s⁻¹.

B5: QdtA Y17R/R97H double mutant from Thermoanaerobacterium thermosaccharolyticum (enzyme)
chain: B1 chain with R97H
Regarding B5, the “stoichiometry N” value in “crystal structure [6]” came to 2. In addition, in “purified protein [3]”, the Km was 21 ± 5 µM.

B6: 3,4-ketoisomerase domain of FdtD (Shewanella denitrificans OS217) (protein)
chain: SNNFELKLQMSKVKGVSLHKFHLVNDLRGNLSVGEFEKDIPFTPKRYFTVFGVPNKEVRGEHAHKECKQFLICVSGNCSVLVDDGENREEYVLDSIDKGIYLPPMTWGVQYKYSKDAVLLVFASHYYDSDDYIRDYSTFKQMRQN
In the case of B6, in the data set “purified protein [7]”, the Michaelis constant (Km) came out at 790 ± 120 µM, the catalytic constant (kcat) is 4.85 ± 0.56 s⁻¹ and the kcat/Km was determined as 6100 M⁻¹ s⁻¹.
